Measured values as given in patent publication US20230192896A1 (published 2023).
Positions count from the first letter of the chain named.

T1: FX zymogen (UniProt P00742 41-179; P00742 183-488)
T1 chain 1: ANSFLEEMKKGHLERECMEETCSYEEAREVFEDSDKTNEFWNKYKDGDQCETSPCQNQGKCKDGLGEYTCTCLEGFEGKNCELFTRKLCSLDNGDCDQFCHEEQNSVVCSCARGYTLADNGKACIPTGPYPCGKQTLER
T1 chain 2: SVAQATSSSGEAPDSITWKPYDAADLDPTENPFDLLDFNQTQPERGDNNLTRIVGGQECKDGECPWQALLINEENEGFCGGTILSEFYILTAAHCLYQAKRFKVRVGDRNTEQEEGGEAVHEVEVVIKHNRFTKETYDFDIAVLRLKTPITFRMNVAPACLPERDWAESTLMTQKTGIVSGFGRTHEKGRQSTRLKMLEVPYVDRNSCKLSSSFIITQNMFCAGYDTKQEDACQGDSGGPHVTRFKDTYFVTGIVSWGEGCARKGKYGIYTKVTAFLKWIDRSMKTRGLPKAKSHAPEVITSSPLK

B1: BIIB-12-924 (antibody, V domains shown)
VH: QVQLVESGGGVVQPGRSLRLSCAASGFTFSSYGMHWVRQAPGKGLEWVAVISYDGSNKYYADSVKGRFTISRDNSKNTLYLQMNSLRAEDTAVYYCAKGKSSERGLNPWGQGTLVTVSS
VL: DIQMTQSPSSVSASVGDRVTITCRASQGISSWLAWYQQKPGKAPKLLIYAASSLQSGVPSRFSGSGSGTDFTLTISSLQPEDFATYYCQQGNSFPLTFGGGTKVEIK
B2: BIIB-12-1332 (antibody, V domains shown)
VH: QVQLVQSGAEVKKPGASVKVSCKASGYTFTSYYMSWVRQAPGQGLEWMGIINPSGGSTSYAQKFQGRVTMTRDTSTSTVYMELSSLRSEDTAVYYCARLGRKSRVFDIWGQGTMVTVSS
VL: B1 VL with G91V, I106F
B3: BIIB-12-1298 (antibody, V domains shown)
VH: QVQLVESGGGVVQPGRSLRLSCAASGFTFSSYGMHWVRQAPGKGLEWVAVISYDGSNKYYADSVKGRFTISRDNSKNTLYLQMNSLRAEDTAVYYCAKGGSDRRVGSWGQGTLVTVSS
VL: B1 VL with G91T, F94L, L96I
B4: BIIB-12-1320 (antibody, V domains shown)
VH: QLQLQESGPGLVKPSETLSLTCTVSGGSISSSSYYWGWIRQPPGKGLEWIGSIYYSGSTYYNPSLKSRVTISVDTSKNQFSLKLSSVTAADTAVYYCARGSGLLVREHYYYYMDVWGKGTTVTVS
VL: B1 VL with V11L, G28S, W32Y, A34N, G91A, N92D, S93D, F94T, L96W
B5: BIIB-12-1295 (antibody, V domains shown)
VH: QVQLVQSGAEVKKPGASVKVSCKASGYTFTSYYMVWVRQAPGQGLEWMGIINPSGGSTSYAQKFQGRVTMTRDTSTSTVYMELSSLRSEDTAVYYCARVGGATTGKIGYGMDVWGQGTTVTVSS
VL: B1 VL with S53N, G91A, N92I, F94L, L96I
B6: BIIB-12-916 (antibody, V domains shown)
VH: QVQLVQSGAEVKKPGASVKVSCKASGYTFTSYYMHWVRQAPGQGLEWMGIINPSGGSTSYAQKFQGRVTMTRDTSTSTVYMELSSLRSEDTAVYYCARGGRQKATRRVDVWGQGTVVTVSS
VL: B1 VL with V11L, G28S, W32Y, A34N, G91L, N92A, S93I, F94T, L96F
B7: BIIB-12-1300 (antibody, V domains shown)
VH: QVQLVESGGGVVQPGRSLRLSCAASGFTFSSYGMHWVRQAPGKGLEWVAVISYDGSNKYYADSVKGRFTISRDNSKNTLYLQMNSLRAEDTAVYYCARGSKYLHAWGQGTLVTVSS
VL: B1 VL with G91A, N92S, L96P
B8: BIIB-12-1306 (antibody, V domains shown)
VH: QVQLQESGPGLVKPSQTLSLTCTVSGGSISSGGYYWSWIRQHPGKGLEWIGSIYYSGSTYYNPSLKSRVTISVDTSKNQFSLKLSSVTAADTAVYYCARGAGGSAPWGQGTLVTVSS
VL: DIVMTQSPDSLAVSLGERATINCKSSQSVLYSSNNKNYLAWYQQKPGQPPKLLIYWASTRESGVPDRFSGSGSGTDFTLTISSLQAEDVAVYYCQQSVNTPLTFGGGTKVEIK
B9: BIIB-12-923 (antibody, V domains shown)
VH: QVQLVQSGAEVKKPGASVKVSCKASGYTFTSYYMHWVRQAPGQGLEWMGIINPSGGSTSYAQKFQGRVTMTRDTSTSTVYMELSSLRSEDTAVYYCARGAGYLQRAFDIWGQGTMVTVSS
VL: DIQMTQSPSTLSASVGDRVTITCRASQSISSWLAWYQQKPGKAPKLLIYKASSLESGVPSRFSGSGSGTEFTLTISSLQPDDFATYYCQQFKSLSFTFGGGTKVEIK
B10: BIIB-12-1293 (antibody, V domains shown)
VH: B9 VH with A100S, Y102G, L103K, Q104H, A106G, F107L, I109V
VL: B1 VL with G91A, S93I, L96F
B11: BIIB-12-1294 (antibody, V domains shown)
VH: B2 VH with S35H, L99G, G100T, K102S, V105D, F106M, I108V, M114T
VL: B9 VL with F91V, K92N, S93T, L94F, S95P
B12: BIIB-12-1303 (antibody, V domains shown)
VH: QVQLVESGGGVVQPGRSLRLSCAASGFTFSSYGMHWVRQAPGKGLEWVAVISYDGSNKYYADSVKGRFTISRDNSKNTLYLQMNSLRAEDTAVYYCARGPTSRLFQHWGQGTLVTVS
VL: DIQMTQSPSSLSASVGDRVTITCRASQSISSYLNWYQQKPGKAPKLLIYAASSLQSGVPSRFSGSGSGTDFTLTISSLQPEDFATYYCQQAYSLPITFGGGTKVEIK
B13: BIIB-12-932 (antibody, V domains shown)
VH: QVQLVESGGGVVQPGRSLRLSCAASGFTFSSYGMHWVRQAPGKGLEWVAVISYDGSNKYYADSVKGRFTISRDNSKNTLYLQMNSLRAEDTAVYYCARLGYRGASAFDIWGQGTMVTVSS
VL: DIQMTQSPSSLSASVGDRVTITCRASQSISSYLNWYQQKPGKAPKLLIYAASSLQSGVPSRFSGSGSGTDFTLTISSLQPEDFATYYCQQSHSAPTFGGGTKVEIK
B14: BIIB-12-1322 (antibody, V domains shown)
VH: QVQLVQSGAEVKKPGASVKVSCKASGYTFTSYYIHWVRQAPGQGLEWMGIINPSGGSTSYAQKFQGRVTMTRDTSTSTVYMELSSLRSEDTAVYYCARSRQRHRGDWYFDLWGRGTLVTVSS
VL: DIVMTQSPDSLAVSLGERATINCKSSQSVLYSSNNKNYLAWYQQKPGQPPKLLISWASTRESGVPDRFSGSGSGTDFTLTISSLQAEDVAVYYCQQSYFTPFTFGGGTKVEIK
B15: BIIB-12-929 (antibody, V domains shown)
VH: B2 VH with S35H, L99D, G100Q, R101G, K102Y, V105S
VL: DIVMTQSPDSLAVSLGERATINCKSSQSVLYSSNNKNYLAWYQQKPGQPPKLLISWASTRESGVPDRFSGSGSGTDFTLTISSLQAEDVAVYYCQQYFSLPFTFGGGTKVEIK
B16: BIIB-12-933 (antibody, V domains shown)
VH: B3 VH with K98R, G99L, G100P, S101R, D102F, R103T, R104G, V105T, G106A, S107Y
VL: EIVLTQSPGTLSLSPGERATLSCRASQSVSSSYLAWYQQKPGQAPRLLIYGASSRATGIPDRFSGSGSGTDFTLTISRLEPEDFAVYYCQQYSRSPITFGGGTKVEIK
B17: BIIB-12-915 (antibody, V domains shown)
VH: QLQLQESGPGLVKPSETLSLTCTVSGGSISSSRYYWGWIRQPPGKGLEWIGSIYYSGSTYYNPSLKSRVTISVDTSKNQFSLKLSSVTAADTAVYYCARVGGGYANPWGQGTLVTVSS
VL: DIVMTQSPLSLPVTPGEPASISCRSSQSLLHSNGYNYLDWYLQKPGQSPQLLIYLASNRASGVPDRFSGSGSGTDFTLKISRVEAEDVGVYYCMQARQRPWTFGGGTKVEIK
B18: BIIB-12-931 (antibody, V domains shown)
VH: QVQLVQSGAEVKKPGASVKVSCKASGYTFTSYYMSWVRQAPGQGLEWMGIINPSGGSTSYAQKFQGRVTMTRDTSTSTVYMELSSLRSEDTAVYYCARDPVQEYGPYYYYMDVWGKGTTVTVSS
VL: EIVMTQSPATLSVSPGERATLSCRASQSVSSNLAWYQQKPGQAPRLLIYGASTRATGIPARFSGSGSGTEFTLTISSLQSEDFAVYYCQQAAYWPWTFGGGTKVEIK
B19: BIIB-12-904 (antibody, V domains shown)
VH: B3 VH with K98R, G100S, S101G, D102R, R103S, R104G, V105Y, G106H, S107Y
VL: B18 VL with A92F, Y93N, W96P
B20: BIIB-12-926 (antibody, V domains shown)
VH: B6 VH with G99D, Q102M, K103A, A104R, T105G, R106A, R107S, V108P, V110Y, V116L
VL: B18 VL with A91H, A92S, Y93F, W96P
B21: BIIB-12-1327 (antibody, V domains shown)
VH: QVQLVESGGGVVQPGRSLRLSCAASGFTFSSYGMHWVRQAPGKGLEWVAVISYDGSNKYYADSVKGRFTISRDNSKNTLYLQMNSLRAEDTAVYYCAKLGLARGGGYGMDVWGQGTTVTVSS
VL: B18 VL with L11Q, S12Y, A91Y, A92H, Y93N, W94F, W96P
B22: BIIB-12-936 (antibody, V domains shown)
VH: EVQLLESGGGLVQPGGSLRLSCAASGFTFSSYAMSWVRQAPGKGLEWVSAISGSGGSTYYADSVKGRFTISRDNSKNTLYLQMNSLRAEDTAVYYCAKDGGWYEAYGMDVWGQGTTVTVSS
VL: B18 VL with A91S, A92H, Y93N, W94L, W96P
B23: BIIB-12-1321 (antibody, V domains shown)
VH: QVQLVQSGAEVKKPGSSVKVSCKASGGTFSSYAISWVRQAPGQGLEWMGGIIPIFGTANYAQKFQGRVTITADESTSTAYMELSSLRSEDTAVYYCARTPDTSSATDWGQGTLVTVSS
VL: EIVMTQSPATLSLSPGERATLSCRASQSVSSYLAWYQQKPGQAPRLLIYDSSNRATGIPARFSGSGSGTDFTLTISSLEPEDFAVYYCQQFTNLPYTFGGGTKVEIK
B24: BIIB-12-1311 (antibody, V domains shown)
VH: B7 VH with R98K, S100R, K101H, L103W, H104A, A105V
VL: B23 VL with M4L, S51A, F91A, T92S, Y96P
B25: BIIB-12-1301 (antibody, V domains shown)
VH: B1 VH with K98R, G99T, K100G, S101N, S102Y, E103G, L106M, N107P, P108Y
VL: B23 VL with M4L, S51A, N53K, F91S, T92S, N93S, L94W, Y96P

Molecular target: T1, FX zymogen
Assay: BLI

Point of comparison: B24, Kd 29 nM. Against it:
- B1 — within 1.5-fold, 22.3 nM
- B2 — 1.8-fold higher, 53.5 nM
- B3 — within 1.5-fold, 33.5 nM
- B4 — 3.5-fold lower, 8.27 nM
- B5 — within 1.5-fold, 42.6 nM
- B6 — 1.9-fold lower, 15.6 nM
- B7 — 1.7-fold higher, 48.6 nM
- B8 — 1.6-fold higher, 47 nM
- B9 — within 1.5-fold, 33.8 nM
- B10 — within 1.5-fold, 26 nM
- B11 — within 1.5-fold, 37.3 nM
- B12 — within 1.5-fold, 25.9 nM
- B13 — within 1.5-fold, 29.3 nM
- B14 — within 1.5-fold, 36.1 nM
- B15 — 1.9-fold lower, 15.2 nM
- B16 — 1.7-fold higher, 50.3 nM
- B17 — within 1.5-fold, 34.4 nM
- B18 — 2.1-fold lower, 13.5 nM
- B19 — within 1.5-fold, 42.3 nM
- B20 — within 1.5-fold, 24 nM
- B21 — within 1.5-fold, 38.3 nM
- B22 — 2.3-fold higher, 66 nM
- B23 — 2.7-fold lower, 10.6 nM
- B25 — 2.2-fold higher, 65 nM
